Measured values taken from the supplement of paper PMC9170038.

Test system: MS2 coat protein
Assay: apparent KD of MS2 coat protein; designed switch direction (-1 OFF switch, 1 ON switch): -1; higher = weaker reporter binding
In short: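 Apparent KD, taken as the median over clusters for each design, was obtained by curve-fitting normalised cluster fluorescence. Designed RNA switches had been transcribed on Illumina chips by stalled E. coli RNA polymerase and titrated with SNAP-549-labelled MS2 coat protein, doubling from 0.7 or 1.5 nM to 3 µM.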

[1] = input ligand: microRNA oligo, concentration not stated
[2] = Eterna round: R95, input ligand: microRNA oligo, concentration not stated
[3] = Eterna round: R95, input ligand: FMN 200 uM
[4] = Eterna round: R95, input ligand: none

| Sequence | apparent KD of MS2 coat protein (input ligand: FMN 200 uM) [nM] | apparent KD of MS2 coat protein (input ligand: none) [nM] | other results |
| --- | --- | --- | --- |
| CCUGCGGACAAAGGAUAUUGCGGUGGCCGGCUCGGCGUACCGAGCCUACAUGAGGAUCACCCAUGUAAGAAGGUUGUCGUUGGA [Mat - Exclusion NG 2 - Mod of JL - D71] (Eterna round: R96, puzzle: Exclusion NG 2) | 228 | 40.1 | apparent KD of MS2 coat protein [1]: 27 nM |
| ACUGGAGCAGGAUAUAUAUGACGUGCUUCGGCACGGUGAGUACAUGAGGAUCACCCAUGUAGAAGGGCUCCAGU [Exclusion 2 (Mod2 of Brourd's E2/9-D2)] (Eterna round: R97, puzzle: Exclusion 2) | 88.4 | 23.4 | – |
| ACUAGAUGAGGAUAUGCAUGUUUUCAUGUUCUUCUAGAUUAACAUGAGGAUCACCCAUGUAGAAGGCGUCUUUU [Exclusion 2 - 31] (puzzle: Exclusion 2) | – | – | apparent KD of MS2 coat protein [2]: 22.4 nM |
| AGAGAUGCCCAUGGCCGCAAGCUUUUUGCUUGUCUUACCACAUGAGGAUCACCCAUGUGACAUGGGCUCCUUAUAAU [Essoator] (puzzle: Sensor v3, turn-off variant 2) | – | – | apparent KD of MS2 coat protein [3]: 13.5 nM; apparent KD of MS2 coat protein [2]: 9.99 nM; apparent KD of MS2 coat protein [4]: 12.1 nM |
| UGCGAGUAAGGAUAUUCGCGACCACCCACAAGGGCGGUCGAGAAGAAGGUACUUGAGGAUCACCCAAGUCCUAA [Inraindi] (Eterna round: R97, puzzle: Exclusion 4) | 95.5 | 20.2 | – |
| CCUGCACAUGAGGAUCACCCAUGUCAGGAUAUCUCGCCGUGUGGAGCAACACGGUAUAAGAGAAGGGACACGGG [Gegexeusre] (puzzle: Exclusion 1) | – | – | apparent KD of MS2 coat protein [2]: 22.8 nM |
| CUGAGUUUAGGAUAUACAUGAGGAUCACCCAUGUAAAGUAGCUUGCGUACAGGCAGAUGUAGAAGGAAAUUCGG [Mod of JL 7 - Jieux - Exclusion 3] (Eterna round: R97, puzzle: Exclusion 3) | 31.5 | 41.8 | – |
| UGCAAGCUUUUGAGAUCCUACAUGAGGAUCACCCAUGUGCUCGUCUUAUAACGUACUGUGACGAAAGUCACGGUACG [JL TOV1 3.97] (Eterna round: R97, puzzle: Sensor, turn-off variant 1) | 184 | 222 | – |
| UUGACUGGCGAGGAUAUCUCGCAAUAGUUAGGGAGAGAAGGUGCUACAUGAGGAUCACCCAUGUCAAACGAACC [Eternabot (L1) Solution 58] (Eterna round: R97, puzzle: Exclusion 6) | 17.7 | 21.9 | – |
| GCAAGCUUAAUCAGUAUGAACAUGAGGAUCACCCAUGUAUAAGGUAAUCCUUUUGGGCCCUUUAUUACUCGUCUUAU [JR_STOV1_Sub028] (Eterna round: R97, puzzle: Sensor, turn-off variant 1) | 322 | 405 | – |
| AGUGCGUAUGUGAGGAUAUGCUGGUCCUUGGAUCGGCAGAAGGCACAUGAGGAUCACCCAUGUGGUGUCGUACC [salish99_Bmod_ex4_076] (puzzle: Brourd's mod of Exclusion 4) | – | – | apparent KD of MS2 coat protein [2]: 136 nM |
| UUAUUGGUUGUGAGGAUAUCGGAUAGAUAGAUAUUCGAGAAGGCACAUGAGGAUCACCCAUGUGUGAUUAGAAA [JR_BMEx4_Sub048] (Eterna round: R97, puzzle: Brourd's mod of Exclusion 4) | 193 | 25.9 | – |
| CGCCCUCCGGUGAGGAUAUUGCCCACCAUGGUCGGCAAGAAGGCACUUGAGGAUCACCCAAGUAAAACAAAUAA [Beraus] (Eterna round: R97, puzzle: Brourd's mod of Exclusion 4) | 450 | 34.8 | – |
| GAAAAGGUAGGAUAUACGAAAAAAAAGGCUAGAAAAAAAACACAUGAGGAUCACCCAUGUAGAAGGACCAAAAG [salish99_ex2_r3_068] (puzzle: Exclusion 2) | – | – | apparent KD of MS2 coat protein [3]: 28.7 nM; apparent KD of MS2 coat protein [2]: 28.8 nM; apparent KD of MS2 coat protein [4]: 24 nM |
| UAAACAUGGAUAUAACAGUACAUGAGGAUCACCCAUGUUAAUAUGAUAAAUUAUAACAAGUUUUUUUGUCGUCUUAA [Feeding at the Trough] (Eterna round: R97, puzzle: Sensor, turn-off variant 1) | 47 | 190 | – |
| CCUCCCUGAGGAUAUCCACCCUCAUACAUGAGGAUCACCCAUGUUCAUCCGUGGGUACCCGGAGAAGGCAGAUUUC [Megrez-a] (Eterna round: R97, puzzle: Exclusion 5) | 41.9 | 33.1 | – |
| GCCCGGCGUGUAGGAUAUGGUUCCGUUUCGGUUCCAGAAGGACAUGAGGAUACAUGAGGAUCACCCAUGUGGUCGUCACCGGGC [salish99_ExNG1_r04_402] (Eterna round: R96, puzzle: Exclusion NG 1) | 37.4 | 38.7 | apparent KD of MS2 coat protein [1]: 26 nM |
| CUUGACUGAGGAUAUACGAGAUCGAAAGAUCGGCGAUCCCUACAUGAGGAUCACCCAUGUAGAAGGCAGUCAAG [Mod 14 - Jieux - Exclusion 2] (Eterna round: R97, puzzle: Exclusion 2) | 70.6 | 17 | – |
